Test results taken from patent publication US20240228658A1.
Blank lines part the entries; values can stand above or below the binder they belong to.

Legend:
[1] = molecular target: T1, human 5T4 on cells (human) (UniProt Q13641); experiment: FACS on NCI-H226 cells (endogenous 5T4)
T1 sequence (looked up): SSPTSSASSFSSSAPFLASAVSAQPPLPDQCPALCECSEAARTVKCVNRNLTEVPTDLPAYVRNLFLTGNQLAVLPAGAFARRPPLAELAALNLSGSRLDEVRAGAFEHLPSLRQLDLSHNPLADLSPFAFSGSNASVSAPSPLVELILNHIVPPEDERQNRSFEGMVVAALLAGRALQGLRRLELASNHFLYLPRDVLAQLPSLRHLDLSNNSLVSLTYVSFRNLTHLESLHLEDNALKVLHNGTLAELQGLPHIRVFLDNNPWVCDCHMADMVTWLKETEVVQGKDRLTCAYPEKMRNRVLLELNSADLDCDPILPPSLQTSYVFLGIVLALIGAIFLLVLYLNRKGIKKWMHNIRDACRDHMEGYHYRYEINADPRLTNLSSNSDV

[2] = molecular target: T1, human 5T4 on cells (human); experiment: FACS on CHO cells over expressing 5T4
[3] = molecular target: T1, human 5T4 on cells (human); experiment: cell-based or functional assay
[4] = molecular target: T1, human 5T4 on cells (human); experiment: FACS, CHO cells over expressing human 5T4
[5] = molecular target: T1, human 5T4 on cells (human); experiment: FACS, NCI-H226 cells
[6] = molecular target: T2, h5T4-His (cat #19845-H08H, Sino Biological) (human) (UniProt Q13641); experiment: ELISA, coated h5T4-His
T2 sequence (looked up): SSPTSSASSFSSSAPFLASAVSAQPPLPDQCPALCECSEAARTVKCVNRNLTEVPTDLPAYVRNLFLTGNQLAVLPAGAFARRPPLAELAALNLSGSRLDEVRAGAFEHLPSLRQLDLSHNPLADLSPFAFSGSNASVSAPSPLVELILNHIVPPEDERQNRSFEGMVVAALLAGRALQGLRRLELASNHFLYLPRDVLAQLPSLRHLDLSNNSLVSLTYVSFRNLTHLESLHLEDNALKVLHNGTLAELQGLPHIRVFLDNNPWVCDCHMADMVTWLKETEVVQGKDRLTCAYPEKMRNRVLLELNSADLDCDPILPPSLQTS

- EC50 [1]: 1.24 nM
- EC50 [2]: 1.4 nM
B1: IM-1178 Tribody (CD3x5T4_IM24xNKG2D) (protein, part only; not given: anti-CD3 Fab, anti-NKG2D scFv, linkers, not shown: another chain or arm of the molecule; small tags and cut ends)
VH: QVQLVQSGAEVKKPGASVKLTCTASGYTFTAYYMHWMRQAPGQGLEWMGIVLPGRGSTNYAQKFQGRVTVTRDTSTNTVYMELNSLTSEDTAVYYCVRGYRDFDYWGPGTLVTVSS
VL: ELVLTQSPATLSLSPGERATLSCKASQNVGTAVAWYQQKPGQAPRLLIYSASNRYTGIPARFSGSGSGTDFTLTVSSLEPEDFAVYYCQQYTSYPRTFGQGTKVEIK

- EC50 [1]: 3.9 nM
- EC50 [2]: 2.3 nM
B2: IM-1222 Tribody (5T4_IM53-CD3-NKG2A) (protein, part only; not given: anti-CD3 Fab, anti-NKG2A scFv, linkers, not shown: another chain or arm of the molecule; small tags and cut ends)
VH: QVQLVQSGAEVKKPGASVKVSCKASGYTFTDYYMNWVRQAPGRGLEWMGVFNPYNGDTRYTQKFKDRVTMTIDKSISTAYMELSRLRSDDTAVYYCARLRLLYDTSEYYVMDYWGQGTTVTVSS
VL: ENVLTQSPATLSLSPGERATLSCSASSSVNYMHWYQQKPGQSPRLLIYDTSKLASGIPARFSGSGSGTDYTLTISSLEPEDFAVYFCFQGSGYPYTFGGGTKVEIK
- T cells mediated cytotoxicity (lactate dehydrogenase assay), EC50 [3]: 0.02 nM

- EC50 (read off the curve) [4]: 5 nM
B3: CD3x5T4-IM50xNKG2A (protein, part only; not given: anti-CD3 Fab, anti-NKG2A scFv, linkers, not shown: another chain or arm of the molecule; small tags and cut ends)
VH: QVQLVQSGAEVKKPGASVKVSCKASGYPFTDYYMNWVRQAPGRGLEWIGVFNPYNGDTRYTQKFKDKATLTIDKSISTAYMELNRLRSDDTAVYYCARLRLLYDTSEYYVMDYWGQGTTVTVSS
VL: ENVLTQSPATLSLSPGERATLSCSASSSVNYMHWYQQKPGQAPRLLIYDTSKLASGIPARFSGSGSGTDYTLTISSLEPEDFAVYYCFQGSGYPYTFGGGTKVEIK

- EC50 (read off the curve) [4]: 5 nM
B4: CD3x5T4-IM51xNKG2A (protein, part only; not given: anti-CD3 Fab, anti-NKG2A scFv, linkers, not shown: another chain or arm of the molecule; small tags and cut ends)
VH: QVQLVQSGAEVKKPGASVKVSCKASGYTFTDYYMNWVRQAPGQGLEWMGVFNPYNGDTRYTQKFKDRVTMTRDTSISTAYMELSRLRSDDTAVYYCARLRLLYDTSEYYVMDYWGQGTTVTVSS
VL: ENVLTQSPATLSLSPGERATLSCSASSSVNYMHWYQQKPGQSPRLLIYDTSKLASGIPARFSGSGSGTDYTLTISSLEPEDFAVYFCFQGSGYPYTFGGGTKVEIK

- EC50 (read off the curve) [4]: 5 nM
B5: CD3x5T4-IM49xNKG2A (protein, part only; not given: anti-CD3 Fab, anti-NKG2A scFv, linkers, not shown: another chain or arm of the molecule; small tags and cut ends)
VH: QVQLVQSGAEVKKPGASVKVSCKASGYTFTDYYMNWVRQAPGRGLEWIGVFNPYNGDTRYTQKFKDRATLTIDKSISTAYMELSRLRSDDTAVYYCARLRLLYDTSEYYVMDYWGQGTTVTVS
VL: ENVLTQSPATLSLSPGERATLSCSASSSVNYMHWYQQKPGQAPRLLIYDTSKLASGIPARFSGSGSGTDYTLTISSLEPEDFAVYYCFQGSGYPYTFGGGTKVEIK

- EC50 (read off the curve) [4]: 6 nM
B6: CD3x5T4-IM34xNKG2A (protein, part only; not given: anti-CD3 Fab, anti-NKG2A scFv, linkers, not shown: another chain or arm of the molecule; small tags and cut ends)
VH: AVQLVQSGAEVKKPGASVKVSCKASGYTFTDYYMNWVRQAPGQGLEWMGVFNPYNGDTRYTQKFKDKVTMTIDKSTSTVYMELNSLRSEDTAVYYCARLRLLYDTSEYYVMDYWGQGTTVTVSS
VL: ENVLTQSPATLSLSPGERATLSCSASSSVNYMHWYQQKPGQAPRLLIYDTSKLASGIPARFSGSGSGNDFTLTISSLEPEDFAVYYCFQGSGYPYTFGGGTKVEIK

- EC50 (read off the curve) [4]: 3 nM
- EC50 (read off the curve) [5]: 6 nM
- EC50 (read off the curve) [6]: 40 nM
B7: CD3X5T4_cl-16XNKG2A (protein, part only; not given: anti-CD3 Fab, anti-NKG2A scFv, linkers, not shown: another chain or arm of the molecule; small tags and cut ends)
VH: AVQLQQSGPVRVKPGASVKMSCKASGYPFTDYYMNWVKQSHGRSLDWIGVFNPYNGDTRYTQKFKDKATLTIDKSSSTAYMELNSLTSEDSAVYYCARLRLLYDTSEYYVMDYWGQGTSVTVSS
VL: ENVLTQSPAIMSASPGEKVTMTCSASSSVNYMHWYQQKSNTSPKLWIYDTSKLASGVPGRFSGSGSGNSYSLTISSMEAEDVATYFCFQGSGYPYTFGGGTKLEIK
